PMC4786110

Biological target: aMh-FcG2a, nanobody aMh fused with the Fc domain of mouse IgG2a (Camelus bactrianus | camel | mouse)
Experiment: SPR; Biacore 3000; aMh-Fc captured by anti-mouse IgG immobilised on a CM5 chip; antigen flowed at 5.95-595 nM; 25°C, HBS-EP pH 7.4, 30 μl/min; 1:1 fitting

aMh-FcG2a, nanobody aMh fused with the Fc domain of mouse IgG2a (Camelus bactrianus | camel | mouse), sequence (heavy, as listed by the source): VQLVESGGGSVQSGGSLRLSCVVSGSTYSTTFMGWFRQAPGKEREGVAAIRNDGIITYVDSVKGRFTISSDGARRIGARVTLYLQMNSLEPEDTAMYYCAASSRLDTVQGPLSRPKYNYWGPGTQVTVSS

## ABC transporter substrate binding protein (MH3620) of Mycoplasma hominis (natural protein)
  Kd: 5.94 nM
  koff: 0.000106 s⁻¹
  kon: 17800 M⁻¹ s⁻¹
